# According to patent US6277383A, “Ryegrass pollen allergen” (University of Melbourne, priority 1995, dated 2001):
# B1: clone 19R: lambda gt 11 cDNA clone encoding Lol p Ib.2 (protein)
# chain: MAVQKHTVALFLAVALVAGPAASYAADAGYAPATPATPAAPATAATPATPATPATPAAVPSGKATTEEQKLIEKINAGFKAAVAAAAVVPPADKYKTFVETFGTATNKAFVEGLASGYADQSKNQLTSKLDAALKLAYEAAQGATPEAKYDAYVATLTEALRVIAGTLEVHAVKPAAEEVKVGAIPAAEVQLIDKVDAAYRTAATAANAAPANDKFTVFENTFNNAIKVSLGAAYDSYKFIPTLVAAVKQAYAAKQATAPEVKYTVSETALKKAVTAMSEAEKEATPAAAATATPTPAAATATATPAAAYATATPAAATATATPAAATATPAAAGGYKV
# B2: Lol p Ib.2: protein encoded by clone 19R (SEQ ID NO.: 4) (protein)
# chain: B1 chain
# B3: Lol p Ib.1: protein encoded by the 12R clone (SEQ ID NO.: 2) (protein)
# chain: MAVQKYTVALFLAVALVAGPAASYAADAGYTPAAAATPATPAATPAAAGGKATTDEQKLLEDVNAGFKAAVAAAANAPPADKFKIFEAAFSESSKGLLATSAAKAPGLIPKLDTAYDVAYKAAEGATPEAKYDAFVTALTEALRVIAGALEVHAVKPATEEVPAAKIPTGELQIVDKIDAAFKIAATAANAAPTNDKFTVFESAFNKALNECTGGAYETYKFIPSLEAAVKQAYAATVAAAPEVKYAVFEAALTKAITAMTQAQKAGKPAAAAATGAATVATGAATAAAGAATAAAGGYKA
# B4: Clone 12: 1.2 kb cDNA clone lambda-12R; its expressed protein is designated Lol p Ib.1 (protein)
# chain: B3 chain
# Columns and labels:
# [1] = system: specific IgE from pooled human allergic sera; assay: Immunological screening of clone 19R with sera; assay type: binding; settings: plaque purified clone
# Description: Duplicate filters of the cDNA expression library in Example 1 were screened with specific IgE from pooled human allergic sera. The bound IgE was detected using ^125 I-labelled anti-human IgE (Kallestad Laboratories,Chaska, Minn.). The plaques that were antibody-positive on both of the duplicate filters were picked off, purified, and then replated and tested for binding to MAbs.
# [2] = system: IgE antibodies of individual serum from 30 grass allergic patients; assay: Dot blot screening of recombinant allergens with 30 individual allergic sera; assay type: binding, human
# Procedure: Two microliters of phage stocks of clones 12R, 13R and 19R and a non-recombinant lambda gt 11 were spotted onto a lawn of E. coli Y1090 induced with a nitrocellulose filter saturated with 10 mM IPTG. The protein blots were then probed with individual serum from 30 grass allergic patients. a=Lol p Ib.1, b=Lol p Ia, c=Lol p Ib.2 and d=non-recombinant lambda gt 11. [<]=individuals having higher level of IgE bound to Lol p Ib.2 than Lol p Ia and Lol p Ib.1. [1]=individuals having IgE specific to Lol p Ia. [2]=individuals having IgE specific to Lol p Ib.1 and Lol p Ib.2.
# The relative allergenicity of Lol p Ia, Lol p Ib.1 and Lol p Ib.2 were tested using 30 individual allergic sera.
# [3] = system: MAb 12.3; assay: Antibody screening of lambda-gt 11 cDNA clones: binding of MAb 12.3
# Procedure: Poly (A+) mRNA isolated from mature rye grass pollen by the phenol method ([…] and Michaels, (1984) Plant Mol. Biol. Rep., 2:24-28) was used to construct a cDNA library in the vector lambda-gt 11. The library was then screened with antibody probes to detect sequences expressing Group I proteins. E. coli […] transfected with 3×10^4 recombinant phages were plated and incubated at 42° C. for 3 h. The plates were overlaid with a dry 132 mm nitrocellulose (NC) filter previously soaked in 10 mm IPTG and transferred to 37° C. After incubation for 3 h the filters were carefully peeled off and incubated in 20 ml per filter of MTBS (10% w/v non-fat milk powder, 50 mm Tris-HCI, pH 7.6, 150 mM Nacl) for 30 min. at room temperature. A second set of NC filters was placed on phage plates and after incubating for 3 h were treated as above. Both sets of NC filters were tested for binding of MAb 40.1 to plaques by the method described in Huynh et al. (1985) In: DNA Cloning, a practical approach, Glover, D. M. (ed.) Vol. 1, pp. 49-78, IRL Press, Oxford, England. The antibody positive plaques were picked, purified, then replated and tested for binding to probes. The positive clones were plaque-purified and tested for IgE binding using sera from grass pollen-allergic subjects. Eighteen clones were selected as encoding proteins recognized by both Lol p I-specific MAbs and IgE antibodies (Table 1). The largest of the cDNA clones, 1.2kb in size, that expressed rye-grass allergenic protein was initially selected for further characterization and sequencing, and designated clone lambda-12R (FIG. 1a).
# [4] = system: MAbs 3.2, 12.3, 21.3 and 40.1; assay: Recognition of cloned allergen 12R by MAbs (FIG. 1a); assay type: binding; settings: MAbs 3.2, 12.3, 21.3, 40.1
# Procedure: Poly (A+) mRNA isolated from mature rye grass pollen by the phenol method (Herrin and Michaels, (1984) Plant Mol. Biol. Rep., 2:24-28) was used to construct a cDNA library in the vector lambda-gt 11. The library was then screened with antibody probes to detect sequences expressing Group I proteins. E. coli Y1090 transfected with 3×10^4 recombinant phages were plated and incubated at 42° C. for 3 h. The plates were overlaid with a dry 132 mm nitrocellulose (NC) filter previously soaked in 10 mm IPTG and transferred to 37° C. After incubation for 3 h the filters were carefully peeled off and incubated in 20 ml per filter of MTBS (10% w/v non-fat milk powder, 50 mm Tris-HCI, pH 7.6, 150 mM Nacl) for 30 min. at room temperature. A second set of NC filters was placed on phage plates and after incubating for 3 h were treated as above. Both sets of NC filters were tested for binding of MAb 40.1 to plaques by the method described in Huynh et al. (1985) In: DNA Cloning, a practical approach, Glover, D. M. (ed.) Vol. 1, pp. 49-78, IRL Press, Oxford, England. The antibody positive plaques were picked, purified, then replated and tested for binding to probes. The positive clones were plaque-purified and tested for IgE binding using sera from grass pollen-allergic subjects. Eighteen clones were selected as encoding proteins recognized by both Lol p I-specific MAbs and IgE antibodies (Table 1). […]
molecule,measurement,setting,value
B1,Reaction with non-allergic sera,[1],not positive
same,Binding of specific IgE in sera of ryegrass sensitive patients,[1]; pooled allergic sera,bind specific IgE
B2,Patients with IgE antibodies reactive to the recombinant allergen,[2],80%
B3,"Affinity of MAb 12.3 (footnote of Table 1, in words)",[3],high affinity
same,Patients with IgE antibodies reactive to the recombinant allergen,[2],80%
B4,Recognition by all four MAbs used in this study,[4],recognized
